Assay results from the supplement of paper PMC10126150.
± gives the standard deviation of the averaged measurements.

Tested on: ATP
Experiment: switch fluorescence ratio, 500 uM ATP over buffer (Cy3 cluster intensity, sum of 5 cycles each) (fold (ratio)); higher = stronger signal-on switching upon ATP binding; sequences stand for … in TCGTCGGCAGCGTCAGATGTGTATAAGAGACAGTTTTTTTTTTTTTTTTTTTTTTTTT…TC
Conditions: aptamer strand: ATP DNA aptamer (quencher-CACCTGGGGGAGTATTGCGGAGGAAGG + anchor), 100 nM annealed; ATP concentration: 500 uM
Method in brief: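 Between each of five buffer/ATP cycles, the flow-cell was stripped with NaOH and re-annealed. Each cycle imaged Cy3-labelled switching-strand clusters, annealed to 100 nM quencher-labelled ATP aptamer on a modified Illumina MiSeq flow-cell, first in selection buffer and then after 15 min with 500 uM ATP at 22 °C. The fluorescence ratio is summed target-cycle over summed buffer-cycle Cy3 intensity per cluster, averaged per switch-domain sequence, with clusters outside 100-1000 RFU excluded.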
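Further: ATP exposure 15 min at 22 °C before imaging.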

Sequence	switch fluorescence ratio
ACTGGATCCA	1.01 ± 0.013
ACTAGCAGCT	1.01 ± 0.025
GGGGGAATTG	1.02 ± 0.075
CGTTTTTGAT	0.981 ± 0.04
TTTCGTTTTC	1.08 ± 0.1
CGTTGAGGGT	0.99 ± 0.014
GGAGATTGAA	0.992 ± 0.019
TTTGGACGCT	1.04 ± 0.038
GTACTTCTGT	0.96 ± 0.014
AAAAATTTTA	0.993 ± 0.026
GGCTATATTT	0.991 ± 0.017
GGTGTTGTG	0.974 ± 0.081
AAATTTGGGG	1 ± 0.038
TCGTCAGCTG	1.02 ± 0.061
AACGCGGCTG	0.9967 ± 0.0046
CCTTTGCCCG	1.07 ± 0.17
TGGATTGGAT	1.03 ± 0.035
GCGGGCCTTG	0.984 ± 0.068
TATTGTTTTG	0.986 ± 0.033
GAACAGGGGA	1.53 ± 0.68
GAAAGTGCAT	0.999 ± 0.042
TAAAAGGGGG	0.999 ± 0.034
GGGTGGAAAG	0.984 ± 0.041
GGGGGCGGCT	1.03 ± 0.056
GTCAAAGATT	0.98 ± 0.014

Sequence	switch fluorescence ratio
TAGGAGGTTC	0.988 ± 0.021
TATATATAAC	1.006 ± 0.0081
TGGGGTAGGA	0.988 ± 0.029
TTTGACCAGG	1.02 ± 0.045
ATTTATAATT	0.992 ± 0.028
CACGGCTCGC	1.04 ± 0.015
TGGGTACGTC	0.998 ± 0.026
AGAGTACTGG	1.01 ± 0.01
AACAGGAAAT	0.9596 ± 0.0032
AAAACGATAT	1.046 ± 0.0062
ACTTACAGGG	1.171 ± 0.0058
TATTGTCTAC	0.9901 ± 0.0019
TACTGAATGG	0.997 ± 0.0051
CCCGGGGCTG	1.024 ± 0.0073
GAGGGTTGAA	0.999 ± 0.033
ACAGTGTGTT	0.979 ± 0.018
GGGGACCTAG	1.01 ± 0.015
TATCAGTCGT	0.988 ± 0.032
TCAGGGGCGC	0.971 ± 0.031
GAGTGTAAGA	1 ± 0.034
TTATTATGGA	1.02 ± 0.011
TTAATGTTGG	0.962 ± 0.046
AATGGGGGCT	1.02 ± 0.022
AAATCCGAAT	1.01 ± 0.069
AAACTTGTAA	1.01 ± 0.027

Sequence	switch fluorescence ratio
TTTGAGAAGA	1.02 ± 0.012
GTGGGGGTTA	0.996 ± 0.03
CATTTATAGT	0.9799 ± 0.0083
TGAGTTCTTG	0.982 ± 0.046
GTTAGAGGGC	1 ± 0.011
ATGGTTTCGT	0.996 ± 0.037
AACATTAAGC	1.04 ± 0.021
TGCGATGCGG	0.979 ± 0.037
CGAATCCCCA	1.07 ± 0.032
GTTGGTAAGA	0.9979 ± 0.0036
AACAAGCCCA	1.008 ± 0.0066
TAAAAGGCAT	1.03 ± 0.028
GGGTGCATAG	1.03 ± 0.045
TTCAAAGGTG	1.41 ± 0.16
GATTAAAAAT	1.0123 ± 0.00055
ACTGGTGGTG	0.97817 ± 0.0005
GTTTATTACT	1.01 ± 0.021
TTGTTCCTTT	0.9847 ± 0.0076
GGGGGGATTC	1.01 ± 0.019
GGTGTAACAG	0.991 ± 0.012
GTGGATAGCT	1 ± 0.05
GTGATGTTAG	1.01 ± 0.011
GGGTGGCGCC	0.988 ± 0.012
CCGACCTGTA	1.94 ± 0.22
GCTTGATACG	1.06 ± 0.099

Sequence	switch fluorescence ratio
AGGCAATGTC	1.48 ± 0.17
TGTAGCGGGG	0.9942 ± 0.0048
GGACCCGGTT	1.04 ± 0.029
TAAGTCGGTC	0.9827 ± 0.0011
GCAGAGGGTG	1.13 ± 0.086
TCAATTGAGA	1.02 ± 0.01
GTTTGGCCTT	1.04 ± 0.012
GCATTAAAGG	0.981 ± 0.04
AAAAGGAAGT	1.01 ± 0.016
GAAGTTTCTA	0.999 ± 0.0069
ATCGGTACGT	1.03 ± 0.021
TAGGAGTGGG	1 ± 0.01
ATTGAAGCGG	1.01 ± 0.05
GTTTTACCTG	1 ± 0.03
TAAGAGGGGG	0.996 ± 0.052
GGGGGCATAA	1.03 ± 0.076
TTGGGCGAGG	1.025 ± 0.0075
AAAAGGGGTT	1.02 ± 0.043
TATAGATAAG	1.01 ± 0.015
TATAGGCGCG	1.03 ± 0.072
GGATGCAGGA	1.04 ± 0.042
GTTCACTGGG	0.994 ± 0.022
GGGTTCAGGT	1.0068 ± 0.00055
CGTGTGGTAG	0.992 ± 0.044
GGGGGGCTGT	0.973 ± 0.047
